Data on one molecule can be found in PMC6395948 (Molecular Cell, 2019).

One data set deals with T1, McbD (Escherichia coli, UniProt P23186 1-396).
T1 sequence: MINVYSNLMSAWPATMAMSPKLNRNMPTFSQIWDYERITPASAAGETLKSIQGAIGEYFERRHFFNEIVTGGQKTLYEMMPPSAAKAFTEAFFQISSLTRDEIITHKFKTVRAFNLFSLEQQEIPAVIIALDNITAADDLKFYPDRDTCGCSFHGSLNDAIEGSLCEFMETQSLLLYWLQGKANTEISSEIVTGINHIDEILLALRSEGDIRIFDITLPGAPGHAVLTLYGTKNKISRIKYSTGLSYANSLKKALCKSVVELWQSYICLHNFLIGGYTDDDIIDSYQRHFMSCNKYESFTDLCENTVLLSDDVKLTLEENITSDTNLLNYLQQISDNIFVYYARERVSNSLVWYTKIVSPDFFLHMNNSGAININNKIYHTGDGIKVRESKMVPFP
The data set is described as follows: crystal structure.

The data set “crystal structure” concerns the molecule itself. The experiment in a line: crystal structure.

B1: McbB (natural protein, Escherichia coli)
chain: MVLPDIKKGKDMINILPFEIISRNTKTLLITYISSVDITHEGMKKVLESLRSKQGIISEYLLDKLLDESLIDKDKGKEFLITTGVINKTKTSPLWVNSVIISDVPHLFSNAREQWKCDGVFVSHIIDIKDNNINVSDSTLIWLHLENYHSDIVKRIYSKFESNPGVAFIQSYYLKESFRIDGVYSPDLGTPCHFCHIERWLSREEKSFRRNEMSWANLLQLLKKYQMTLPALALGESERGFSYHLIKRRLQELTGTSLVKSHVDNFMSSVSADLITCILCKEPVIHWQACSCLER
As for B1, in the data set with McbD, the binding result was “binds”. The “stoichiometry N” value in “crystal structure” was found to be 2.
